± gives the uncertainty stated by the source.
B1: Unconventional myosin-Ie, residues 1051 to 1108; numbered along this chain, Q12965 (parent)
chain: PQVPQCKALYAYDAQDTDELSFNANDIIDIIKEDPSGWWTGRLRGKQGLFPNNYVTKI

Variants of: B1
Assay: abundance fitness (aPCA) (normalised: wild type 0, dead -1); higher = more abundant; growth selection in yeast, the domain comes from the species named
Conditions: Homo sapiens

| Variant | abundance fitness |
| --- | --- |
| PQVPQCKALYAYDPQDTDELSFNANDIIDIIKEDPSGWWTGRLRGKQGLFPNNYVTKI [A14P] | -0.371 ± 0.042 |
| PQVPQCKALYAYDRQDTDELSFNANDIIDIIKEDPSGWWTGRLRGKQGLFPNNYVTKI [A14R] | -0.377 ± 0.035 |
| PQVPQCKALYAYDEQDTDELSFNANDIIDIIKEDPSGWWTGRLRGKQGLFPNNYVTKI [A14E] | -0.695 ± 0.15 |
| PQVPQCKALYAYDSQDTDELSFNANDIIDIIKEDPSGWWTGRLRGKQGLFPNNYVTKI [A14S] | -0.188 ± 0.061 |
| PQVPQCKALYAYDHQDTDELSFNANDIIDIIKEDPSGWWTGRLRGKQGLFPNNYVTKI [A14H] | -0.741 ± 0.26 |
| PQVPQCKALYAYDDQDTDELSFNANDIIDIIKEDPSGWWTGRLRGKQGLFPNNYVTKI [A14D] | -0.797 ± 0.19 |
| PQVPQCKALYAYDKQDTDELSFNANDIIDIIKEDPSGWWTGRLRGKQGLFPNNYVTKI [A14K] | -0.195 ± 0.053 |
| PQVPQCKALYAYDGQDTDELSFNANDIIDIIKEDPSGWWTGRLRGKQGLFPNNYVTKI [A14G] | -0.173 ± 0.037 |
| PQVPQCKALYAYDVQDTDELSFNANDIIDIIKEDPSGWWTGRLRGKQGLFPNNYVTKI [A14V] | -0.871 ± 0.1 |
| PQVPQCKALYAYDLQDTDELSFNANDIIDIIKEDPSGWWTGRLRGKQGLFPNNYVTKI [A14L] | -0.98 ± 0.13 |
| PQVPQCKALYAYDNQDTDELSFNANDIIDIIKEDPSGWWTGRLRGKQGLFPNNYVTKI [A14N] | -0.452 ± 0.19 |
| PQVPQCKALYAYDCQDTDELSFNANDIIDIIKEDPSGWWTGRLRGKQGLFPNNYVTKI [A14C] | -0.284 ± 0.059 |
| PQVPQCKALYAYDIQDTDELSFNANDIIDIIKEDPSGWWTGRLRGKQGLFPNNYVTKI [A14I] | -0.901 ± 0.31 |
| PQVPQCKALYAYDQQDTDELSFNANDIIDIIKEDPSGWWTGRLRGKQGLFPNNYVTKI [A14Q] | -0.345 ± 0.08 |
| PQVPQCKALYAYDMQDTDELSFNANDIIDIIKEDPSGWWTGRLRGKQGLFPNNYVTKI [A14M] | -0.42 ± 0.12 |
| PQVPQCKALYAYDTQDTDELSFNANDIIDIIKEDPSGWWTGRLRGKQGLFPNNYVTKI [A14T] | -0.374 ± 0.11 |
| PQVPQCKALYAYDFQDTDELSFNANDIIDIIKEDPSGWWTGRLRGKQGLFPNNYVTKI [A14F] | -0.782 ± 0.32 |
| PQVPQCKALYAYDWQDTDELSFNANDIIDIIKEDPSGWWTGRLRGKQGLFPNNYVTKI [A14W] | -1.13 ± 0.31 |
| PQVPQCKALYAYDAHDTDELSFNANDIIDIIKEDPSGWWTGRLRGKQGLFPNNYVTKI [Q15H] | -0.28 ± 0.13 |
| PQVPQCKALYAYDAGDTDELSFNANDIIDIIKEDPSGWWTGRLRGKQGLFPNNYVTKI [Q15G] | -0.157 ± 0.031 |
| PQVPQCKALYAYDALDTDELSFNANDIIDIIKEDPSGWWTGRLRGKQGLFPNNYVTKI [Q15L] | -0.173 ± 0.04 |
| PQVPQCKALYAYDAIDTDELSFNANDIIDIIKEDPSGWWTGRLRGKQGLFPNNYVTKI [Q15I] | -0.172 ± 0.079 |
| PQVPQCKALYAYDAFDTDELSFNANDIIDIIKEDPSGWWTGRLRGKQGLFPNNYVTKI [Q15F] | -0.291 ± 0.21 |

| Variant | abundance fitness |
| --- | --- |
| PQVPQCKALYAYDAEDTDELSFNANDIIDIIKEDPSGWWTGRLRGKQGLFPNNYVTKI [Q15E] | -0.23 ± 0.087 |
| PQVPQCKALYAYDAMDTDELSFNANDIIDIIKEDPSGWWTGRLRGKQGLFPNNYVTKI [Q15M] | -0.059 ± 0.064 |
| PQVPQCKALYAYDACDTDELSFNANDIIDIIKEDPSGWWTGRLRGKQGLFPNNYVTKI [Q15C] | -0.239 ± 0.11 |
| PQVPQCKALYAYDANDTDELSFNANDIIDIIKEDPSGWWTGRLRGKQGLFPNNYVTKI [Q15N] | 0.037 ± 0.11 |
| PQVPQCKALYAYDAKDTDELSFNANDIIDIIKEDPSGWWTGRLRGKQGLFPNNYVTKI [Q15K] | -0.186 ± 0.11 |
| PQVPQCKALYAYDADDTDELSFNANDIIDIIKEDPSGWWTGRLRGKQGLFPNNYVTKI [Q15D] | -0.145 ± 0.087 |
| PQVPQCKALYAYDAADTDELSFNANDIIDIIKEDPSGWWTGRLRGKQGLFPNNYVTKI [Q15A] | -0.087 ± 0.03 |
| PQVPQCKALYAYDAPDTDELSFNANDIIDIIKEDPSGWWTGRLRGKQGLFPNNYVTKI [Q15P] | -0.484 ± 0.18 |
| PQVPQCKALYAYSAQDTDELSFNANDIIDIIKEDPSGWWTGRLRGKQGLFPNNYVTKI [D13S] | -0.189 ± 0.055 |
| PQVPQCKALYAYTAQDTDELSFNANDIIDIIKEDPSGWWTGRLRGKQGLFPNNYVTKI [D13T] | 0.012 ± 0.065 |
| PQVPQCKALYAYHAQDTDELSFNANDIIDIIKEDPSGWWTGRLRGKQGLFPNNYVTKI [D13H] | -0.16 ± 0.057 |
| PQVPQCKALYAYYAQDTDELSFNANDIIDIIKEDPSGWWTGRLRGKQGLFPNNYVTKI [D13Y] | -0.209 ± 0.039 |
| PQVPQCKALYAYGAQDTDELSFNANDIIDIIKEDPSGWWTGRLRGKQGLFPNNYVTKI [D13G] | -0.304 ± 0.056 |
| PQVPQCKALYAYNAQDTDELSFNANDIIDIIKEDPSGWWTGRLRGKQGLFPNNYVTKI [D13N] | -0.084 ± 0.094 |
| PQVPQCKALYAYIAQDTDELSFNANDIIDIIKEDPSGWWTGRLRGKQGLFPNNYVTKI [D13I] | -0.082 ± 0.082 |
| PQVPQCKALYAYEAQDTDELSFNANDIIDIIKEDPSGWWTGRLRGKQGLFPNNYVTKI [D13E] | -0.067 ± 0.044 |
| PQVPQCKALYAYWAQDTDELSFNANDIIDIIKEDPSGWWTGRLRGKQGLFPNNYVTKI [D13W] | -0.368 ± 0.056 |
| PQVPQCKALYAYQAQDTDELSFNANDIIDIIKEDPSGWWTGRLRGKQGLFPNNYVTKI [D13Q] | -0.018 ± 0.067 |
| PQVPQCKALYAYPAQDTDELSFNANDIIDIIKEDPSGWWTGRLRGKQGLFPNNYVTKI [D13P] | -0.399 ± 0.083 |
| PQVPQCKALYAYVAQDTDELSFNANDIIDIIKEDPSGWWTGRLRGKQGLFPNNYVTKI [D13V] | -0.161 ± 0.056 |
| PQVPQCKALYAYRAQDTDELSFNANDIIDIIKEDPSGWWTGRLRGKQGLFPNNYVTKI [D13R] | -0.165 ± 0.04 |
| PQVPQCKALYAYMAQDTDELSFNANDIIDIIKEDPSGWWTGRLRGKQGLFPNNYVTKI [D13M] | -0.16 ± 0.05 |
| PQVPQCKALYAYFAQDTDELSFNANDIIDIIKEDPSGWWTGRLRGKQGLFPNNYVTKI [D13F] | -0.293 ± 0.057 |

Reference: the Human Domainome abundance scans (Beltran et al. 2025)
